Non-standard residues stand in square brackets, D forms with d. No end group written: not given here. pGlu = O=C1CC[C@@H](C(=O)O)N1 Some results are limits rather than exact numbers.

First the molecules themselves.
T1: NCK1 SH3-2 domain (human)
T1 chain: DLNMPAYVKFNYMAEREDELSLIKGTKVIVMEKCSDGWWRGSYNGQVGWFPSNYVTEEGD

B1: MH043 (peptide)
chain: EPRPPKR-NH2
modifications: not fully specified (residue 1)
B2: MH076 (peptide)
chain: Ac-PPRPPKK-NH2
B3: MH047 (peptide)
chain: Ac-APRPPKR-NH2
B4: MH046 (peptide)
chain: Ac-PPRPPKR-NHEt
B5: MH075 (peptide)
chain: H-PPRPPKR-NH2
B6: MH009 (peptide)
chain: Ac-PAPPKR-NH2
B7: MH011 (peptide)
chain: Ac-PRPAKR-NH2
B8: MH012 (peptide)
chain: Ac-PRPPAR-NH2
B9: MD20 (peptide)
chain: Ac-PRPPKR-NH2
B10: MH010 (peptide)
chain: Ac-PRAPKR-NH2
B11: MH008 (peptide)
chain: Ac-ARPPKR-NH2
B12: MH013 (peptide)
chain: Ac-PRPPKA-NH2
B13: MH044 (peptide)
chain: [pGlu]RPPKR-NH2
B14: MH082 (peptide)
chain: Ac-PAVPPRP-NH2
B15: MH081 (peptide)
chain: H-PAVPPRP-NH2
B16: MH133 (peptide)
chain: Ac-SPAKGEPSLPEK-NH2
B17: MH089 (peptide)
chain: Ac-PPPEHIPPPPRPPKRILEPH-NH2
B18: MH136 (peptide)
chain: SVQDQWKELSHEDLEPPPEHIPPPPRPPKR-NH2
modifications: not fully specified (N-terminus)
B19: MH063 (peptide)
chain: Ac-PPRPPKRI-NH2
B20: MD18 (peptide)
chain: Ac-PPRPPKR-NH2
B21: MH037 (peptide)
chain: Ac-PPPPRP-NH2
B22: MH035 (peptide)
chain: Ac-PPRPPK-NH2
B23: MH039 (peptide)
chain: Ac-EHIPPP-NH2
B24: MH041 (peptide)
chain: Ac-PPPRPPK-NH2
B25: MH036 (peptide)
chain: Ac-PPPRPP-NH2
B26: MH040 (peptide)
chain: Ac-PPEHIP-NH2
B27: MH038 (peptide)
chain: Ac-IPPPPR-NH2
B28: MH115 (peptide)
chain: Ac-PPRTPKR-NH2
B29: MH097 (peptide)
chain: Ac-PPRIPKR-NH2
B30: MH121 (peptide)
chain: Ac-PPRYPKR-NH2
B31: MH104 (peptide)
chain: Ac-PPRKPKR-NH2
B32: MH067 (peptide)
chain: Ac-PPRFPKR-NH2
B33: MH125 (peptide)
chain: Ac-PPRVPKR-NH2
B34: MH062 (peptide)
chain: Ac-PPRRPKR-NH2
B35: MH101 (peptide)
chain: Ac-PPRLPKR-NH2

The target of one assay is T1, NCK1 SH3-2 domain. The assay can be described thus: ITC. For orientation: ITC needs no label: the signal is the heat of the interaction.
Regarding B1, the Kd (in general, the free concentration of one partner at which half of the binding sites on the other are occupied at equilibrium, for simple one-to-one binding) was < 300 µM.
As to B2, the dissociation constant (Kd) is > 1000 µM.
Same read-out and setting: next, B3: < 300 µM; B4: < 300 µM; B5: < 300 µM.

Another assay deals with T1, NCK1 SH3-2 domain. In words: ITC. This is another data set of the same source.
Turning to B6, the equilibrium dissociation constant (Kd) is < 300 µM.
As to B7, the Kd was > 1000 µM.
On the same count and under the same terms, the figure for B8 is < 600 µM; for B9 it is < 300 µM; for B10 it is > 1000 µM.
As to B11, the dissociation constant Kd was > 1000 µM.
Turning to B12, the dissociation constant Kd is > 1000 µM.

The next assay deals with T1, NCK1 SH3-2 domain. The assay can be described thus: ITC. The source holds these as a separate data set.
Consider B13, for which the binding result is listed as “no binding”.

The next assay addresses T1, NCK1 SH3-2 domain. In words: ITC. This is another data set of the same source.
With B14, the binding result is recorded as “no binding”.
Still for that read-out and setting: next, B15: “no binding”; B16: “no binding”.

Another assay addresses T1, NCK1 SH3-2 domain. The assay can be described thus: ITC. This is another data set of the same source.
As for B17, the equilibrium dissociation constant (Kd) is < 300 µM.
Same read-out and setting: the figure for B18 is < 300 µM; for B19 it is < 300 µM.

A further assay has as its target T1, NCK1 SH3-2 domain. The assay can be described thus: ITC. The source holds these as a separate data set.
With B20, the dissociation constant Kd is < 193 µM.
Still for that read-out and setting: next, B9: < 193 µM.

A further assay concerns the target T1, NCK1 SH3-2 domain. The assay can be described thus: ITC. This is another data set of the same source.
Consider B3, for which the equilibrium dissociation constant (Kd) is < 300 µM.

The next assay deals with T1, NCK1 SH3-2 domain. In words: ITC. This is another data set of the same source.
As to B20, the dissociation constant Kd was < 300 µM.
The same measure, in the same setting: the figure for B9 is < 300 µM; for B3 it is < 300 µM.

Another assay deals with T1, NCK1 SH3-2 domain. The assay can be described thus: ITC. The source holds these as a separate data set.
Consider B19, for which the Kd was < 300 µM.

In the next assay the target is T1, NCK1 SH3-2 domain. In words: ITC. This is another data set of the same source.
In the case of B21, the Kd is > 1000 µM.
Regarding B22, the Kd was > 1000 µM.
Turning to B23, the Kd was > 1000 µM.
For B24, the equilibrium dissociation constant (Kd) is > 1000 µM.
With B25, the dissociation constant Kd is > 1000 µM.
Take B26: the Kd is > 1000 µM.
As to B27, the Kd is > 1000 µM.

Another assay concerns the target T1, NCK1 SH3-2 domain. The assay can be described thus: ITC. The source holds these as a separate data set.
As to B28, the equilibrium dissociation constant (Kd) is < 600 µM.
Still for that read-out and setting: next, B29: < 300 µM.
The same measure, in the same setting: next, B30: < 600 µM.
Same read-out and setting: next, B31: < 600 µM; B32: > 600 µM; B33: < 300 µM.
B34: the Kd is < 600 µM.
On the same count and under the same terms, next, B35: < 600 µM.
